The numbers were not newly measured in paper PMC6239910, which cites them from elsewhere.

This series addresses Ube2D3-Ub conjugate (Homo sapiens) (UniProt P61077).

Chain of Ube2D3-Ub conjugate (Homo sapiens) (P61077 whole entry): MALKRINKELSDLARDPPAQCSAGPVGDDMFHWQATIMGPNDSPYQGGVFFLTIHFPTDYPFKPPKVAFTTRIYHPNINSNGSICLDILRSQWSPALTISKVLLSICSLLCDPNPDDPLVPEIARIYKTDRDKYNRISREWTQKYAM
Chain of UHRF1 (Q96T88 whole entry): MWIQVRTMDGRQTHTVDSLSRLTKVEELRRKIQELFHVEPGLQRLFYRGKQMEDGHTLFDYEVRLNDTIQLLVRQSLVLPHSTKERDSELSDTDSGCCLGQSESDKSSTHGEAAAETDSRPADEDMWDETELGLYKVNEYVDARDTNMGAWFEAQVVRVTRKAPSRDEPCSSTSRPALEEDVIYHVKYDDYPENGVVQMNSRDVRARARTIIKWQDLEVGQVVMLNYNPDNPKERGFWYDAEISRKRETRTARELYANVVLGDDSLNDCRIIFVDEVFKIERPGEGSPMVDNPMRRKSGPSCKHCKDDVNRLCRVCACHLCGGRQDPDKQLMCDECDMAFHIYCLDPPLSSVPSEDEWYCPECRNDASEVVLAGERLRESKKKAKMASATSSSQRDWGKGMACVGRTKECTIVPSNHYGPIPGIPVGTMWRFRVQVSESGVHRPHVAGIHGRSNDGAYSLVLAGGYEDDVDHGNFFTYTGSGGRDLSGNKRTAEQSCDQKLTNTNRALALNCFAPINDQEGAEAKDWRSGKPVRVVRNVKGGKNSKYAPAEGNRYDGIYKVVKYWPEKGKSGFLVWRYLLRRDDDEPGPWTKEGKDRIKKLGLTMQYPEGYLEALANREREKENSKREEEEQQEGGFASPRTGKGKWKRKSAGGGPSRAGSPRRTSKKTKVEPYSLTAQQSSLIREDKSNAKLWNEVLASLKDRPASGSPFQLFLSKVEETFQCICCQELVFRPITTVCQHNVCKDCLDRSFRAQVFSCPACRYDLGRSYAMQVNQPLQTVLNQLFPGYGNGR

Consider UHRF1 (from UniProt Q96T88), for which the Kd is 3.2 µM.
